US20050244862A1
Each block holds one binder with its values, some of them ahead of it.

Experiments:
Test in all cases: cell-based or functional assay
trk C receptor subtype = biological target: trk C receptor subtype
[1] = biological target: human trk A receptor (human) (UniProt P04629)
ETA endothelin receptor = biological target: T1, ETA endothelin receptor
T1 sequence (P25101 whole entry, species assumed, looked up): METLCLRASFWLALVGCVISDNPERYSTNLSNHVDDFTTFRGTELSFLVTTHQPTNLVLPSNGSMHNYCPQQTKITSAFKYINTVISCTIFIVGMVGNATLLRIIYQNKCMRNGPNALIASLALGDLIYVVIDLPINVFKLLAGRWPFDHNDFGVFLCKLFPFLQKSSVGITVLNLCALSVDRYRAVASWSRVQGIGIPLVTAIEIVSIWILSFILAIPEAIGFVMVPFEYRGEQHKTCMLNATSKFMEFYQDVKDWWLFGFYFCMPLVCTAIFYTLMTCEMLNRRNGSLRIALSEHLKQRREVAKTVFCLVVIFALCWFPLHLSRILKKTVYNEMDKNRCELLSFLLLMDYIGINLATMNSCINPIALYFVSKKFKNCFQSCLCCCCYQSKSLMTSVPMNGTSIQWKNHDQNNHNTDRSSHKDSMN

ETB endothelin receptor = biological target: ETB endothelin receptor
Chain of ETB endothelin receptor (P24530 whole entry): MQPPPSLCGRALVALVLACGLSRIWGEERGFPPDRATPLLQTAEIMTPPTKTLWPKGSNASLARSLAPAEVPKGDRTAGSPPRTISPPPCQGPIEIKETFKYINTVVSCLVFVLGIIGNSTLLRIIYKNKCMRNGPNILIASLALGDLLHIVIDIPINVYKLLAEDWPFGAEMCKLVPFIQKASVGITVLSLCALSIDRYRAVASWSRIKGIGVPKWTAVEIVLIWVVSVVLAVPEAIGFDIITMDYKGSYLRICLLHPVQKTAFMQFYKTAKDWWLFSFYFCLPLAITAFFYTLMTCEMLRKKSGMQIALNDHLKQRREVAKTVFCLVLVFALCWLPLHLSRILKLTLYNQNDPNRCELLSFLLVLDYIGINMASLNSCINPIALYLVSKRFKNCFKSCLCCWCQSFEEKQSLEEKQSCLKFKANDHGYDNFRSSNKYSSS

NK3 tachykinin receptor = biological target: T2, NK3 tachykinin receptor (UniProt P29371)
T2 sequence (looked up): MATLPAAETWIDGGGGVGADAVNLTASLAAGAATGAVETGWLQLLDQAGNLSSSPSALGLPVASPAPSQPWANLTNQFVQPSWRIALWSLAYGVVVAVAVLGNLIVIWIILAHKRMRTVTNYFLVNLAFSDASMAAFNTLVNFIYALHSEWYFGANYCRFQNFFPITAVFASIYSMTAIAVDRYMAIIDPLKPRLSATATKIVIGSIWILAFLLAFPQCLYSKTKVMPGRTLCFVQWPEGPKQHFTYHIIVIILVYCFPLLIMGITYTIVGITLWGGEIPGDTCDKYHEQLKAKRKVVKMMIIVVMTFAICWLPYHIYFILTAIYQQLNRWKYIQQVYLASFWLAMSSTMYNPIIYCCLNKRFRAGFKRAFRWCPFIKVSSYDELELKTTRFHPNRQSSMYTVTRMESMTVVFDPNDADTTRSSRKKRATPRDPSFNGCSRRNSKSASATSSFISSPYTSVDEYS

NK1 tachykinin receptor = NK1 tachykinin receptor (UniProt P25103)
Chain of NK1 tachykinin receptor (P25103 whole entry): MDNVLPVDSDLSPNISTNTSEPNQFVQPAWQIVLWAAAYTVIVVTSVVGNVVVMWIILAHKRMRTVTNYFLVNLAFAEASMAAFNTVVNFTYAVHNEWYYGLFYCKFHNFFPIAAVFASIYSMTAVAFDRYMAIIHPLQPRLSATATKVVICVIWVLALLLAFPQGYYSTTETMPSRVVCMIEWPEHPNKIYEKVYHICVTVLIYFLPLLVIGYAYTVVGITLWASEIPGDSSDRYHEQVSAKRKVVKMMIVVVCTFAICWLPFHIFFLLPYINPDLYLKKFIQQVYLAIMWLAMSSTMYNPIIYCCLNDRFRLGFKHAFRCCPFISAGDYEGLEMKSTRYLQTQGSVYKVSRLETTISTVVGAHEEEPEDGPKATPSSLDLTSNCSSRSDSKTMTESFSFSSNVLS

NK2 tachykinin receptor = NK2 tachykinin receptor (UniProt P21452)
Chain of NK2 tachykinin receptor (P21452 whole entry): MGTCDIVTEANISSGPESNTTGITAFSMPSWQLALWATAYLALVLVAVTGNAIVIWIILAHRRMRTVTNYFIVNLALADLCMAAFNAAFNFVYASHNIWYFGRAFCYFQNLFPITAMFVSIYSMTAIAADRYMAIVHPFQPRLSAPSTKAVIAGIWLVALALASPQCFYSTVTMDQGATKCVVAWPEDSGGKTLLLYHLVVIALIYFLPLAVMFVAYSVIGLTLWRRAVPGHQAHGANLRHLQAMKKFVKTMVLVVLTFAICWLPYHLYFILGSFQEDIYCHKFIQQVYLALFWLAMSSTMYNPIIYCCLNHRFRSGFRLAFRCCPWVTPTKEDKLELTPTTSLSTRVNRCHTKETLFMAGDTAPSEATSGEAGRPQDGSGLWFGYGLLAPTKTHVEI

Chain of human trk A receptor (human) (P04629 33-796): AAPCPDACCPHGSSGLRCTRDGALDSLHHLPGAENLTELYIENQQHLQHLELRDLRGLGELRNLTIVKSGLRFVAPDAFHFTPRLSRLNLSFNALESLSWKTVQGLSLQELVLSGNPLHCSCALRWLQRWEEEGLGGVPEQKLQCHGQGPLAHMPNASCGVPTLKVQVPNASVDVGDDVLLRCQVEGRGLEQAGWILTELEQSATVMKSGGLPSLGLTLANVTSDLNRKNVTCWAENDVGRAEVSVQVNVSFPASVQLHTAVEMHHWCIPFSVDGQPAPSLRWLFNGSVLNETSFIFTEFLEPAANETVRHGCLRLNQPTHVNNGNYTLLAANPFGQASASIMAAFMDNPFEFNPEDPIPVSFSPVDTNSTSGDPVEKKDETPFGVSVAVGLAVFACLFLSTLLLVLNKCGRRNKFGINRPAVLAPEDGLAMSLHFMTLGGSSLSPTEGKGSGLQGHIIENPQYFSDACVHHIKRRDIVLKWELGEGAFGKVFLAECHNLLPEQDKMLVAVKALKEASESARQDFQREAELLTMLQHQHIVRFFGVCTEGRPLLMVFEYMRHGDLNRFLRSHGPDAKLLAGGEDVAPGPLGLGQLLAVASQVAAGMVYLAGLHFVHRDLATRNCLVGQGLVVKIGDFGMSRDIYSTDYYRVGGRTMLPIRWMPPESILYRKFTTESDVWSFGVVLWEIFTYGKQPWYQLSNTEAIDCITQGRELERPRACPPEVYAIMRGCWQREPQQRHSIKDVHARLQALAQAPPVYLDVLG

- EC50, amplification assay (β-galactosidase), Single Receptor Format (trk C receptor subtype): 2.4 ng/mL
- EC50, amplification assay (β-galactosidase), Single Receptor Format [1]: > 1000 ng/mL
B1: neutrotrophic factor NT3 (ligand, UniProt P20783 139-257, looked up)
chain: YAEHKSHRGEYSVCDSESLWVTDKSSAIDIRGHQVTVLGEIKTGNSPVKQYFYETRCKEARPVKNGCRGIDDKHWNSQCKTSQTYVRALTSENNKLVGWRWIRIDTSCVCALSRKIGRT

- EC50, amplification assay (β-galactosidase), Single Receptor Format (ETA endothelin receptor): 16 nM
Binder: CSCSSWLDKECVYFCHLDIIW (peptide, UniProt P20800 49-69, looked up) [ET-2]

- EC50, amplification assay (β-galactosidase), Single Receptor Format (ETB endothelin receptor): 0.14 nM
- EC50, amplification assay (β-galactosidase), Single Receptor Format (ETA endothelin receptor): 2.1 nM
Binder: CTCFTYKDKECVYYCHLDIIW (peptide, UniProt P14138 97-117, looked up) [ET-3]

- EC50, amplification assay (β-galactosidase), Single Receptor Format (NK3 tachykinin receptor): 100 nM
- EC50, amplification assay (β-galactosidase), Single Receptor Format (NK1 tachykinin receptor): 99 nM
- EC50, amplification assay (β-galactosidase), Single Receptor Format (NK2 tachykinin receptor): 1.3 nM
Binder: DMHDFFVGLM (peptide, UniProt Q9UHF0 81-90, looked up) [neurokinin B]
